{
  "source": "paper PMC6380599",
  "about": "(PLoS Pathogens, 2019)",
  "molecular_target": "T1, histidine tagged SFTSV Gn-Cκ (Gn ectodomain, strain Gangwon/Korea/2012) (SFTSV (Dabie bandavirus) strain …, UniProt U3GR55, strain)",
  "T1 construct": "source: HEK 293F or Expi293F, transfected, purified",
  "assay": "SPR; Biacore T200, […]; dissociation 5 min in PBS with 0.005% Tween20",
  "conditions": "both partners purified",
  "data": [
    {"binder": "Ab10 IgG1 antibody (antibody, V domains shown, also called Ab10 mAb; human IgG1 monoclonal antibody Ab10; source: HEK 293F, transfected, purified from culture supernatant (MabSelect)) VH: EVQLVESGGGVVQPGRSLRLSCAASGFTFSGYGIHWVRQAPGKGLEWVALISYDGSNKYYADSVKGRFTISRDNSKNTLYLQMNSLRAEDTAVYYCAKDRDYFGSGFFDYWGQGTLVTVSS VL: ELVMTQSPSSLSASVGDTVTITCRASQSIYTYLNWYHQTPGKAPKLLISAASSLQSGVPSRFSGSGSGTDFTLTISSLQPEDFATYYCQQYADVPVTFGGGTKLEIK", "values": [
      {"measurement": "Kd", "value": 0.104, "unit": "nM"},
      {"measurement": "koff", "value": "7.7e-05", "unit": "s⁻¹"},
      {"measurement": "kon", "value": 740000, "unit": "M⁻¹ s⁻¹"}
    ]}
  ]
}
